From PMC4539205 come the findings set out here.

What is called stoichiometry N is a count of units in the complex or per binding partner.

The target of test [1] is recombinant NA (rNA) of swine A/California/07/2009 (H1N1): 6xHis-tag, tetrabrachion tetramerization domain, two glycines, NA amino acids 71-469 (Staphylothermus marinus | influenza A virus, swine A/California/07/2009 (H1N1)). Kind of test: SEC; […], Tris 50 mM, 150 mM NaCl pH 8, CaCl2 10 mM; […].
In test [2] the target is recombinant NA (rNA) of avian A/turkey/Turkey/1/2005 (H5N1): 6xHis-tag, tetrabrachion tetramerization domain, two glycines, NA amino acids 51-449 (Staphylothermus marinus | influenza A virus, avian A/turkey/Turkey/1/2005 (H5N1)). The test is described as above.
The target is the same in test [3]. The test can be described thus: negative-stain TEM with single-particle 3D reconstruction.

For “recombinant NA (rNA) of swine A/California/07/2009 (H1N1): 6xHis-tag, tetrabrachion tetramerization domain, two glycines, NA amino acids 71-469 (enzyme)”, the stoichiometry N in test [1] is 4.

Consider “recombinant NA (rNA) of avian A/turkey/Turkey/1/2005 (H5N1): 6xHis-tag, tetrabrachion tetramerization domain, two glycines, NA amino acids 51-449 (enzyme)”, for which the stoichiometry N in test [2] and in test [3] was 4 throughout.
